In US20220276241A1 (TRUSTEES OF INDIANA UNIVERSITY, published 2022):

Target: T1, PhnD E177NΔ (E. coli, UniProt P16682 27-329, acrylodan on Cys 126)
T1 chain: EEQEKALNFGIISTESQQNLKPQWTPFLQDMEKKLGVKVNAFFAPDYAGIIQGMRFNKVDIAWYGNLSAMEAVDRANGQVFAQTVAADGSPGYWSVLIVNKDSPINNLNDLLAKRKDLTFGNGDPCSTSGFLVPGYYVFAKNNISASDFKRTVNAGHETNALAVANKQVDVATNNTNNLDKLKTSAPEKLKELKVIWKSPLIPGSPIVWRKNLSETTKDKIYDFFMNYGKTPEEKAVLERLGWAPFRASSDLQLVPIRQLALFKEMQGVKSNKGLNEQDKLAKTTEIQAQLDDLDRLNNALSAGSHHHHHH
Test: cell-based or functional assay

B1: Fab N2 (Fab, V domains shown)
VH: EVQLVESGGGLVQPGGSLRLSCAASGFNFSSSIHWVRQAPGKGLEWVASISSSSGSTSYADSVKGRFTISADTSKNTAYLQMNSLRAEDTAVYYCARQWSSVMEWYIGLDYWGQGTLVTVSS
VL: DIQMTQSPSSLSASVGDRVTITCRASQSVSSAVAWYQQKPGKAPKLLIYSASSLYSGVPSRFSGSRSGTDFTLTISSLQPEDFATYYCQQSSSSLITFGQGTKVEIKR
B1 was tested, and the “Kd of the PhnD mutant for glyphosate in the presence of Fab N2 (fluorescence titration)” value was 450 nM and the “fold improvement of the Kd for glyphosate on adding Fab N2, compared to the mutant in the absence of Fab N2” value was ~18 fold.
